Assay results published in article doi:10.1101/2025.07.24.665437, “Consensus DNA Inhibits p53 Aggregation but Fails to Rescue Mutants”.

Target: p53 DBD WT (UniProt P04637 94-312)
Assay: EMSA; protein:DNA 1:1, 9:1, 454:1; binding kept 24 h to 1 month; EMSA on TBE gels; protein in 1X PBS, 1 mM TCEP, pH 7.4; DNA stocks in 50 mM Tris-HCl, 137 mM NaCl, pH 8.1; samples held at 4 C (0 hr) or incubated (37 C, 24 h for aggregation); full EMSA details not in material
Conditions: protein: recombinant; tags: 6xHis-TEV (N-terminal); blunt

Chain of p53 DBD WT (P04637 94-312): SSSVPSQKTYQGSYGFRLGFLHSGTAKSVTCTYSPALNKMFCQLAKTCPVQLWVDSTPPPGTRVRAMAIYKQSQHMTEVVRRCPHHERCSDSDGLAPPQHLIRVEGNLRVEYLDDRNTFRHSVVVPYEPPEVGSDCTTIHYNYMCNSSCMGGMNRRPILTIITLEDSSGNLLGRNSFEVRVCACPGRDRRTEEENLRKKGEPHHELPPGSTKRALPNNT

B1: p21-RE (dsDNA)
DNA 1: CGCGAACATGTCCCAACATGTTGCGC
DNA 2: GCGCAACATGTTGGGACATGTTCGCG
**Q.** Does B1 bind?
**A.** Result: binds
